This note sets out measurements from PMC12452593.

The assay has as its target EV-D68 US/MO/14-18947 viral particles (Enterovirus D68).

For “secreted MFSD6-Fc microbody (from UniProt Q6ZSS7 153-280) (Fc fusion)”, the survival rate of neonatal ICR mice (n = 9 per group) given 1.0 × 10^7 TCID50 of EV-D68 US/MO/14-18947 pre-incubated with 15 ug secMFSD6 Mb (secCtl Mb group: 11.11%) was found to be 88.9%.
